Measurements as given in patent US20230002480A1.

Key:
Test in all cases: cell-based or functional assay
[1] = molecular target: HIV-1 Env of pseudovirus BJOX025000.01.1 (clade CRF01_AE (T/F)) (HIV-1)
[2] = molecular target: HIV-1 Env of pseudovirus BJOX028000.10.3 (clade CRF01_AE (T/F)) (HIV-1)
[3] = molecular target: HIV-1 Env of pseudovirus C2101.c01 (clade CRF01_AE) (HIV-1)
[4] = molecular target: HIV-1 Env of pseudovirus C4118.c09 (clade CRF01_AE) (HIV-1)
[5] = molecular target: HIV-1 Env of pseudovirus R1166.c01 (clade CRF01_AE) (HIV-1)
[6] = molecular target: HIV-1 Env of pseudovirus R2184.c04 (clade CRF01_AE) (HIV-1)
[7] = molecular target: HIV-1 Env of pseudovirus T278-50 (clade CRF02_AG) (HIV-1)
[8] = molecular target: HIV-1 Env of pseudovirus 1054_07_TC4_1499 (clade B (T/F)) (HIV-1)
[9] = molecular target: HIV-1 Env of pseudovirus 62357_14_D3_4589 (clade B (T/F)) (HIV-1)
[10] = molecular target: HIV-1 Env of pseudovirus 6535.3 (clade B) (HIV-1)
[11] = molecular target: HIV-1 Env of pseudovirus CNE30 (clade BC) (HIV-1)
[12] = molecular target: HIV-1 Env of pseudovirus Ce0393_C3 (clade C (T/F)) (HIV-1)
[13] = molecular target: HIV-1 Env of pseudovirus Ce1176_A3 (clade C (T/F)) (HIV-1)
[14] = molecular target: HIV-1 Env of pseudovirus HIV-16845-2.22 (clade C) (HIV-1)
[15] = molecular target: HIV-1 Env of pseudovirus Q23.17 (clade A) (HIV-1)
[16] = molecular target: HIV-1 Env of pseudovirus Q842.d12 (clade A) (HIV-1)
[17] = molecular target: HIV-1 Env of pseudovirus SC422661.8 (clade B) (HIV-1)
[18] = molecular target: HIV-1 Env of pseudovirus TRJO4551.58 (clade B) (HIV-1)
[19] = molecular target: HIV-1 Env of pseudovirus TRO.11 (clade B) (HIV-1)
[20] = molecular target: HIV-1 Env of pseudovirus ZM214M.PL15 (clade C) (HIV-1)
[21] = molecular target: HIV-1 Env of pseudovirus ZM249M.PL1 (clade C) (HIV-1)

PG16 (antibody)
IC50, titer in TZM.bl cells [1]: 0.071 µg/mL
IC80, titer in TZM.bl cells [1]: > 50 µg/mL
IC50, titer in TZM.bl cells [2]: > 50 µg/mL
IC80, titer in TZM.bl cells [2]: > 50 µg/mL
IC50, titer in TZM.bl cells [3]: 0.012 µg/mL
IC80, titer in TZM.bl cells [3]: 0.238 µg/mL
IC50, titer in TZM.bl cells [4]: 0.022 µg/mL
IC80, titer in TZM.bl cells [4]: 0.143 µg/mL
IC50, titer in TZM.bl cells [5]: 0.28 µg/mL
IC80, titer in TZM.bl cells [5]: 4.38 µg/mL
IC50, titer in TZM.bl cells [6]: 0.67 µg/mL
IC80, titer in TZM.bl cells [6]: > 50 µg/mL
IC50, titer in TZM.bl cells [7]: 0.227 µg/mL
IC80, titer in TZM.bl cells [7]: 18.6 µg/mL

10E8 (antibody)
IC50, titer in TZM.bl cells [1]: 0.107 µg/mL
IC80, titer in TZM.bl cells [1]: 6.33 µg/mL
IC50, titer in TZM.bl cells [2]: 0.665 µg/mL
IC80, titer in TZM.bl cells [2]: 7.36 µg/mL
IC50, titer in TZM.bl cells [3]: 1.92 µg/mL
IC80, titer in TZM.bl cells [3]: 8.26 µg/mL
IC50, titer in TZM.bl cells [4]: 1.62 µg/mL
IC80, titer in TZM.bl cells [4]: 9.06 µg/mL
IC50, titer in TZM.bl cells [5]: 0.274 µg/mL
IC80, titer in TZM.bl cells [5]: 2.61 µg/mL
IC50, titer in TZM.bl cells [6]: 0.272 µg/mL
IC80, titer in TZM.bl cells [6]: 2.46 µg/mL
IC50, titer in TZM.bl cells [7]: 0.949 µg/mL
IC80, titer in TZM.bl cells [7]: 7.46 µg/mL

N49P11 (antibody)
IC50 [8]: 2.92 µg/mL
IC80 [8]: 13.1 µg/mL
MPI [8]: 100
IC50 [9]: 0.599 µg/mL
IC80 [9]: 3.56 µg/mL
MPI [9]: 100
IC50 [10]: 8.22 µg/mL
IC80 [10]: 17.2 µg/mL
MPI [10]: 100
IC50 [11]: 0.889 µg/mL
IC80 [11]: 4.45 µg/mL
MPI [11]: 100
IC50 [12]: 1.51 µg/mL
IC80 [12]: 9.71 µg/mL
MPI [12]: 100
IC50 [13]: 0.946 µg/mL
IC80 [13]: 6.05 µg/mL
MPI [13]: 100
IC50 [14]: 1.72 µg/mL
IC80 [14]: 8.15 µg/mL
MPI [14]: 100
IC50 [15]: 0.034 µg/mL
IC80 [15]: 0.254 µg/mL
MPI [15]: 100
IC50 [16]: 0.027 µg/mL
IC80 [16]: 0.103 µg/mL
MPI [16]: 100
IC50 [17]: 0.729 µg/mL
IC80 [17]: 3.49 µg/mL
MPI [17]: 100
IC50 [18]: 0.183 µg/mL
IC80 [18]: 0.656 µg/mL
MPI [18]: 100
IC50 [19]: 0.179 µg/mL
IC80 [19]: 0.937 µg/mL
MPI [19]: 100
IC50 [20]: 1.35 µg/mL
IC80 [20]: 8.98 µg/mL
MPI [20]: 100
IC50 [21]: 3.64 µg/mL
IC80 [21]: 17.4 µg/mL
MPI [21]: 100

10-1074 (antibody)
IC50, titer in TZM.bl cells [1]: > 50 µg/mL
IC80, titer in TZM.bl cells [1]: > 50 µg/mL
IC50, titer in TZM.bl cells [2]: > 50 µg/mL
IC80, titer in TZM.bl cells [2]: > 50 µg/mL
IC50, titer in TZM.bl cells [3]: > 50 µg/mL
IC80, titer in TZM.bl cells [3]: > 50 µg/mL
IC50, titer in TZM.bl cells [4]: > 50 µg/mL
IC80, titer in TZM.bl cells [4]: > 50 µg/mL
IC50, titer in TZM.bl cells [5]: > 50 µg/mL
IC80, titer in TZM.bl cells [5]: > 50 µg/mL
IC50, titer in TZM.bl cells [6]: > 50 µg/mL
IC80, titer in TZM.bl cells [6]: > 50 µg/mL
IC50, titer in TZM.bl cells [7]: 2.15 µg/mL
IC80, titer in TZM.bl cells [7]: 18.3 µg/mL

PG9 (antibody)
IC50, titer in TZM.bl cells [1]: 0.144 µg/mL
IC80, titer in TZM.bl cells [1]: 0.335 µg/mL
IC50, titer in TZM.bl cells [2]: 1.1 µg/mL
IC80, titer in TZM.bl cells [2]: 21.5 µg/mL
IC50, titer in TZM.bl cells [3]: 0.034 µg/mL
IC80, titer in TZM.bl cells [3]: 0.099 µg/mL
IC50, titer in TZM.bl cells [4]: 0.068 µg/mL
IC80, titer in TZM.bl cells [4]: 0.2 µg/mL
IC50, titer in TZM.bl cells [5]: 0.736 µg/mL
IC80, titer in TZM.bl cells [5]: 2.88 µg/mL
IC50, titer in TZM.bl cells [6]: 0.255 µg/mL
IC80, titer in TZM.bl cells [6]: 1.24 µg/mL
IC50, titer in TZM.bl cells [7]: 0.393 µg/mL
IC80, titer in TZM.bl cells [7]: 3.19 µg/mL
